Results from the supplement of paper PMC10567573.

B1: ARL6IP1 (parent)
chain: YLDPSVLSGVSCFVMFLCLADYLV
B2: MIA2 (parent)
chain: SVIEPVQESSFRSRKIAVEDENDL

Variants of: B1
Assay: protein stability index of a GFP-peptide fusion (GPS, HEK-293T) (PSI 1-6); higher = more stable
Details: c terminus: a fixed tail appended
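Further: lentivirally expressed fusions sorted by FACS into six bins by GFP to DsRed ratio, PSI derived from sequencing read proportions per bin multiplied by bin number.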

| Variant | protein stability index |
| --- | --- |
| YLDPSVLSGVSCFVMFLCLAFYLV | 3.29 |
| YLDPSVLSGVSCFVMFLCLAAYLV | 2.71 |
| YLDPSVLSGVSCFVMFLCLAHYLV | 2.6 |
| YLDPSVLSGVSCFVMFLCLAKYLV | 1.14 |
| YLDPSVLSGVSCFVMFLCLAYYLV | 1.55 |
| YLDPSVLSGVSCFVMFLCLAQYLV | 2.58 |
| YLDPSVLSGVSCFVMFLCLAGYLV | 3.14 |
| YLDPSVLSGVSCFVMFLCLATYLV | 3.76 |
| YLDPSVLSGVSCFVMFLCLANYLV | 2.7 |
| YLDPSVLSGVSCFVMFLCLAIYLV | 3.5 |
| YLDPSVLSGVSCFVMFLCLAVYLV | 3.96 |
| YLDPSVLSGVSCFVMFLCLADILV | 2.44 |
| YLDPSVLSGVSCFVMFLCLADWLV | 3.48 |
| YLDPSVLSGVSCFVMFLCLADQLV | 3.52 |
| YLDPSVLSGVSCFVMFLCLADSLV | 3.94 |
| YLDPSVLSGVSCFVMFLCLADHLV | 2.31 |
| YLDPSVLSGVSCFVMFLCLADPLV | 2.87 |
| YLDPSVLSGVSCFVMFLCLADLLV | 1.58 |
| YLDPSVLSGVSCFVMFLCLADNLV | 3.07 |
| YLDPSVLSGVSCFVMFLCLADVLV | 2.14 |
| YLDPSVLSGVSCFVMFLCLADCLV | 3.08 |
| YLDPSVLSGVSCFVMFLCLADKLV | 3.93 |

| Variant | protein stability index |
| --- | --- |
| YLDPSVLSGVSCFVMFLCLADYNV | 3.21 |
| YLDPSVLSGVSCFVMFLCLADYQV | 2.69 |
| YLDPSVLSGVSCFVMFLCLADYKV | 3.29 |
| YLDPSVLSGVSCFVMFLCLADYIV | 4.16 |
| YLDPSVLSGVSCFVMFLCLADYWV | 2.07 |
| YLDPSVLSGVSCFVMFLCLADYTV | 3.08 |
| YLDPSVLSGVSCFVMFLCLADYGV | 2.59 |
| YLDPSVLSGVSCFVMFLCLADYCV | 3.76 |
| YLDPSVLSGVSCFVMFLCLADYYV | 2.27 |
| YLDPSVLSGVSCFVMFLCLADYMV | 2.83 |
| YLDPSVLSGVSCFVMFLCLADYEV | 4.8 |
| YLDPSVLSGVSCFVMFLCLADYPV | 2.39 |
| YLDPSVLSGVSCFVMFLCLADYVV | 3.07 |
| YLDPSVLSGVSCFVMFLCLADYHV | 2.74 |
| YLDPSVLSGVSCFVMFLCLADYLA | 2.78 |
| YLDPSVLSGVSCFVMFLCLADYLI | 3.52 |
| YLDPSVLSGVSCFVMFLCLADYLM | 3.77 |
| YLDPSVLSGVSCFVMFLCLADYLS | 2.53 |
| YLDPSVLSGVSCFVMFLCLADYLY | 2.16 |
| YLDPSVLSGVSCFVMFLCLADYLF | 2.97 |
| YLDPSVLSGVSCFVMFLCLADYLL | 3.97 |
| YLDPSVLSGVSCFVMFLCLADYLC | 3.6 |

Variants of: B2
Assay: as above
Details: c terminus: a fixed tail appended

| Variant | protein stability index |
| --- | --- |
| SVLEPVQESSFRSRKIAVEDENDL | 5.59 |
| SVFEPVQESSFRSRKIAVEDENDL | 5.32 |
| SVAEPVQESSFRSRKIAVEDENDL | 5.71 |
| SVDEPVQESSFRSRKIAVEDENDL | 5.9 |
| SVPEPVQESSFRSRKIAVEDENDL | 5.13 |
| SVHEPVQESSFRSRKIAVEDENDL | 4.67 |
| SVCEPVQESSFRSRKIAVEDENDL | 5.5 |
| SVNEPVQESSFRSRKIAVEDENDL | 5.61 |
| SVMEPVQESSFRSRKIAVEDENDL | 5.44 |
| SVGEPVQESSFRSRKIAVEDENDL | 5.73 |
| SVKEPVQESSFRSRKIAVEDENDL | 4.92 |
| SVEEPVQESSFRSRKIAVEDENDL | 5.61 |
| SFIEPVQESSFRSRKIAVEDENDL | 4.42 |
| SRIEPVQESSFRSRKIAVEDENDL | 5.5 |
| STIEPVQESSFRSRKIAVEDENDL | 5.31 |
| SPIEPVQESSFRSRKIAVEDENDL | 5.15 |
| SNIEPVQESSFRSRKIAVEDENDL | 5.87 |
| SGIEPVQESSFRSRKIAVEDENDL | 5.67 |
| SDIEPVQESSFRSRKIAVEDENDL | 5.83 |
| SKIEPVQESSFRSRKIAVEDENDL | 5.38 |
| SIIEPVQESSFRSRKIAVEDENDL | 4.69 |
| SHIEPVQESSFRSRKIAVEDENDL | 5.51 |
| SLIEPVQESSFRSRKIAVEDENDL | 5.24 |
| SAIEPVQESSFRSRKIAVEDENDL | 5.31 |
| SQIEPVQESSFRSRKIAVEDENDL | 5.82 |

| Variant | protein stability index |
| --- | --- |
| SMIEPVQESSFRSRKIAVEDENDL | 5.22 |
| SCIEPVQESSFRSRKIAVEDENDL | 5.76 |
| SWIEPVQESSFRSRKIAVEDENDL | 5.14 |
| SYIEPVQESSFRSRKIAVEDENDL | 5.26 |
| SSIEPVQESSFRSRKIAVEDENDL | 5.32 |
| SEIEPVQESSFRSRKIAVEDENDL | 5.22 |
| DVIEPVQESSFRSRKIAVEDENDL | 5.68 |
| KVIEPVQESSFRSRKIAVEDENDL | 5.13 |
| RVIEPVQESSFRSRKIAVEDENDL | 5.32 |
| FVIEPVQESSFRSRKIAVEDENDL | 2.93 |
| GVIEPVQESSFRSRKIAVEDENDL | 5.17 |
| AVIEPVQESSFRSRKIAVEDENDL | 5.01 |
| HVIEPVQESSFRSRKIAVEDENDL | 5.52 |
| NVIEPVQESSFRSRKIAVEDENDL | 5.69 |
| QVIEPVQESSFRSRKIAVEDENDL | 5.39 |
| VVIEPVQESSFRSRKIAVEDENDL | 4.33 |
| TVIEPVQESSFRSRKIAVEDENDL | 5.45 |
| MVIEPVQESSFRSRKIAVEDENDL | 4.71 |
| YVIEPVQESSFRSRKIAVEDENDL | 3.12 |
| LVIEPVQESSFRSRKIAVEDENDL | 4.33 |
| EVIEPVQESSFRSRKIAVEDENDL | 5.28 |
| CVIEPVQESSFRSRKIAVEDENDL | 5.53 |
| WVIEPVQESSFRSRKIAVEDENDL | 4.46 |
| IVIEPVQESSFRSRKIAVEDENDL | 3.96 |
| PVIEPVQESSFRSRKIAVEDENDL | 5.59 |
